According to patent US20250213684A1 (Novartis, published 2025):
Residue numbers refer to the chain shown, from its start. Where “and” joins values, the source holds several entries; their conditions need not be identical. Equal entries are not always repeated. Blank lines part the entries; values can stand above or below the binder they belong to.

Columns and labels:
[1] = molecular target: T1, TIM-3 (antigen; species and construct not stated for the assay) (UniProt Q8TDQ0 22-202, limits assumed); assay: SPR (Biacore), run of May 30, 2014
[2] = molecular target: T1, TIM-3 (antigen; species and construct …); assay: SPR (Biacore), run of Apr. 29, 2014
[3] = molecular target: T1, TIM-3 (antigen; species and construct …); assay: SPR (Biacore), run of May 1, 2014
[4] = molecular target: T2, human TIM-3 expressed on cells (human, UniProt Q8TDQ0 22-301); assay: flow cytometry competition on 300.19 hTIM-3 cells against PE-labelled ABTIM3-hum21
T2 construct: also called huTIM-3; hTIM-3

huTIM-3/his [5] = molecular target: T3, huTIM-3/his (human, UniProt Q8TDQ0 22-202); assay: Biacore, 2nd antibody injection; 1st antibody (competitor) ABTIM3-hum03
T3 construct: also called hTIM-3/his antigen

huTIM-3/his [6] = molecular target: T3, huTIM-3/his; assay: Biacore, 2nd antibody injection; 1st antibody (competitor) ABTIM3-hum21
[7] = molecular target: T2, human TIM-3 expressed on cells; assay: flow cytometry on cells expressing human TIM-3
huTIM-3/his [8] = molecular target: T3, huTIM-3/his; assay: Biacore, 2nd antibody injection; 1st antibody (competitor) huIgG1
[9] = molecular target: T2, human TIM-3 expressed on cells; assay: flow cytometry, 300.19 huTIM3 cells, detected by secondary Ab-FITC
[10] = molecular target: T2, human TIM-3 expressed on cells; assay: flow cytometry competition on 300.19 hTIM3 cells in presence of ABTIM3; signal is MFI of 0.51ug/ml 22C1-PE
cynoTIM-3/Fc [11] = molecular target: T4, cynoTIM-3/Fc (cynomolgus monkey, UniProt A0A2K5U3G7 22-195); assay: SPR (Biacore), mean KD
T4 sequence: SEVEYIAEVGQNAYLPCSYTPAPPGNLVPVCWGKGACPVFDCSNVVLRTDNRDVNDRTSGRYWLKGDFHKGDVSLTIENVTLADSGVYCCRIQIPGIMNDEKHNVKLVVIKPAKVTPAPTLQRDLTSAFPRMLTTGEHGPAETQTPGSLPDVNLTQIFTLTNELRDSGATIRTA

huTIM-3/his [12] = molecular target: T3, huTIM-3/his; assay: SPR (Biacore), mean KD
cynoTIM-3/Fc [13] = molecular target: T4, cynoTIM-3/Fc; assay: SPR (Biacore), run 3
ratTIM-3/Fc [14] = molecular target: T5, ratTIM-3/Fc (rat, UniProt P0C0K5 22-194, limits assumed); assay: SPR (Biacore), run 3
T5 construct: also called rat TIM-3/Fc protein
T5 sequence (looked up): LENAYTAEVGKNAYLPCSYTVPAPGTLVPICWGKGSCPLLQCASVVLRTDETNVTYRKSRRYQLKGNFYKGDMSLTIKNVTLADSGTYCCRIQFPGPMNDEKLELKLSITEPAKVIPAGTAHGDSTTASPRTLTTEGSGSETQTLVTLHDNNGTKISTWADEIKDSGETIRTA

huTIM-3/his [15] = molecular target: T3, huTIM-3/his; assay: SPR (Biacore), run 3
cynoTIM-3/Fc [16] = molecular target: T4, cynoTIM-3/Fc; assay: SPR (Biacore), run 2
huTIM-3/his [17] = molecular target: T3, huTIM-3/his; assay: SPR (Biacore), run 2
cynoTIM-3/Fc [18] = molecular target: T4, cynoTIM-3/Fc; assay: SPR (Biacore), run 1
huTIM-3/his [19] = molecular target: T3, huTIM-3/his; assay: SPR (Biacore), run 1
[20] = molecular target: T1, TIM-3 (antigen; species and construct …); assay: FACS competition binding against the parent murine ABTIM3; cells not named on the sheet
[21] = molecular target: T1, TIM-3 (antigen; species and construct …); assay: SPR (Biacore), run of Apr. 7, 2014
cynoTIM-3/Fc [22] = molecular target: T4, cynoTIM-3/Fc; assay: SPR (Biacore), run 1; run 1 of three; cynoTIM-3/Fc
ratTIM-3/Fc [23] = molecular target: T5, ratTIM-3/Fc; assay: SPR (Biacore), run 2

- Kd [1]: 0.174 nM
- Kd [2]: 0.308 nM
- Kd [3]: 0.269 nM
B1: ABTIM3-hum02 (antibody, human IgG4 S228P, kappa, V domains shown)
VH: QVQLVQSGAEVKKPGASVKVSCKASGYTFTSYNMHWVRQAPGQGLEWIGDIYPGSGDTSYNQKFKGRATMTADKSTSTVYMELSSLRSEDTAVYYCARVGGAFPMDYWGQGTLVTVSS
VL: DIVLTQSPDSLAVSLGERATINCRASESVEYYGTSLMQWYQQKPGQPPKLLIYAASNVESGVPDRFSGSGSGTDFTLTISSLQAEDVAVYYCQQSRKDPSTFGGGTKVEIKR
notes: Humanized

- Kd [1]: 0.161 nM
B2: ABTIM3-hum09 (antibody, human IgG4 S228P, kappa, V domains shown)
VH: B1 VH with A16S, I48M, S55N, A68V, M70I, L113T
VL: EIVLTQSPATLSLSPGERATLSCRASESVEYYGTSLMQWYQQKPGQAPRLLIYAASNVESGIPARFSGSGSGTDFTLTISSLEPEDIAVYFCQQSRKDPSTFGGGTKVEIKR
notes: Humanized

- IC50 (read off the curve) [4]: ~0.4 µg/mL
- change in RU (huTIM-3/his [5]): 8.5 RU
- change in RU (huTIM-3/his [6]): 8.1 RU
- Kd [7]: 0.906 nM
- change in RU (huTIM-3/his [8]): 83.2 RU
- EC50 (read off the curve) [9]: ~0.1 µg/mL
- IC50 (read off the curve) [10]: ~0.2 µg/mL
- Kd (cynoTIM-3/Fc [11]): 3.14 nM
- Kd (huTIM-3/his [12]): 0.163 nM
- Kd (cynoTIM-3/Fc [13]): 5.04 nM
- Kd (ratTIM-3/Fc [14]): 297 nM
- Kd (huTIM-3/his [15]): 0.109 nM
- Kd [1]: 0.194 nM
- Kd (cynoTIM-3/Fc [16]): 3.14 nM
- Kd (huTIM-3/his [17]): 0.226 nM
- Kd (cynoTIM-3/Fc [18]): 1.24 nM
- Kd (huTIM-3/his [19]): 0.155 nM
B3: ABTIM3-hum11 (antibody, human IgG4 S228P, kappa, V domains shown)
VH: B1 VH with A16S, I48M, S55N, A68V, M70I, L113T
VL: AIQLTQSPSSLSASVGDRVTITCRASESVEYYGTSLMQWYQQKPGKAPKLLIYAASNVESGVPSRFSGSGSGTDFTLTISSLQPEDFATYFCQQSRKDPSTFGGGTKVEIKR
notes: Humanized; Immobilized on Protein G beads and cross-linked with DSS in the HDx-MS experiment

- IC50 (read off the curve) [20]: ~0.2 µg/mL
- Kd [21]: 0.135 nM
- Kd [1]: 0.196 nM
- Kd [3]: 0.199 nM
B4: ABTIM3-hum07 (antibody, human IgG4 S228P, kappa, V domains shown)
VH: B1 VH with V37I, S55N, M70L
VL: B1 VL
notes: Humanized

- Kd [1]: 0.364 nM
- Kd [2]: 0.498 nM
- Kd [3]: 0.214 nM
B5: ABTIM3-hum06 (antibody, human IgG4 S228P, kappa, V domains shown)
VH: B1 VH with V37I, S55Q, M70L
VL: B1 VL with Y91F
notes: Humanized

- IC50 (read off the curve) [20]: ~0.2 µg/mL
- Kd [21]: 0.216 nM
- Kd [1]: 0.172 nM
B6: ABTIM3-hum04 (antibody, human IgG4 S228P, kappa, V domains shown)
VH: B1 VH with V37I, S55N, M70L
VL: B1 VL with Y91F
notes: Humanized

- Kd (cynoTIM-3/Fc [22]): 1.04 nM
- Kd (cynoTIM-3/Fc [11]): 2.67 nM
- Kd (cynoTIM-3/Fc [13]): 3.08 nM
- Kd (cynoTIM-3/Fc [16]): 3.89 nM
- Kd (ratTIM-3/Fc [23]): 51 nM
B7: ABTIM3-hum03 (antibody, human IgG4 S228P, kappa)
heavy: not shown
light: DIVLTQSPDSLAVSLGERATINCRASESVEYYGTSLMQWYQQKPGQPPKLLIYAASNVESGVPDRFSGSGSGTDFTLTISSLQAEDVAVYYCQQSRKDPSTFGGGTKVEIKRTVAAPSVFIFPPSDEQLKSGTASVVCLLNNFYPREAKVQWKVDNALQSGNSQESVTEQDSKDSTYSLSSTLTLSKADYEKHKVYACEVTHQGLSSPVTKSFNRGEC
notes: as for B3

- Kd [1]: 0.332 nM
- Kd [2]: 0.313 nM
- Kd [3]: 0.279 nM
B8: ABTIM3-hum05 (antibody, human IgG4 S228P, kappa, V domains shown)
VH: B1 VH with V37I, M70L
VL: B1 VL with Y91F
notes: Humanized

- IC50 (read off the curve) [20]: ~0.2 µg/mL
- Kd [21]: 0.123 nM
- Kd [1]: 0.175 nM
- Kd [3]: 0.309 nM
B9: ABTIM3-hum08 (antibody, human IgG4 S228P, kappa, V domains shown)
VH: B1 VH with S55N
VL: B1 VL with Y91F
notes: Humanized

- IC50 (read off the curve) [20]: ~0.2 µg/mL
- Kd [21]: 0.103 nM
- Kd [1]: 0.23 nM and 0.193 nM
- Kd [3]: 0.114 nM
B10: ABTIM3-hum01 (antibody, human IgG4 S228P, kappa, V domains shown)
VH: B1 VH with S55N
VL: B1 VL
notes: Humanized

- Kd [1]: 0.107 nM
B11: ABTIM3-hum10 (antibody, human IgG4 S228P, kappa, V domains shown)
VH: EVQLVQSGAEVKKPGESLKISCKGSGYTFTSYNMHWVRQMPGKGLEWMGDIYPGNGDTSYNQKFKGQVTISADKSISTVYLQWSSLKASDTAMYYCARVGGAFPMDYWGQGTTVTVSS
VL: B2 VL
notes: Humanized

- Kd [1]: 0.355 nM
B12: ABTIM3-hum12 (antibody, human IgG4 S228P, kappa, V domains shown)
VH: B11 VH
VL: B3 VL
notes: Humanized

- IC50 (read off the curve) [4]: ~0.4 µg/mL
- change in RU (huTIM-3/his [6]): 6.6 RU
- Kd [7]: 0.917 nM
B13: ABTIM3-hum21 (antibody, human IgG1, kappa)
heavy: not shown
light: B7 light
notes: Humanized
